Reference: PMC3205914 (Nature cell biology, 2010)

Tests used:
[1] = target: T1, 6His–ParB (Caulobacter crescentus) (C. crescentus, UniProt B8GW30 1-304); assay: SPR
T1 sequence (looked up): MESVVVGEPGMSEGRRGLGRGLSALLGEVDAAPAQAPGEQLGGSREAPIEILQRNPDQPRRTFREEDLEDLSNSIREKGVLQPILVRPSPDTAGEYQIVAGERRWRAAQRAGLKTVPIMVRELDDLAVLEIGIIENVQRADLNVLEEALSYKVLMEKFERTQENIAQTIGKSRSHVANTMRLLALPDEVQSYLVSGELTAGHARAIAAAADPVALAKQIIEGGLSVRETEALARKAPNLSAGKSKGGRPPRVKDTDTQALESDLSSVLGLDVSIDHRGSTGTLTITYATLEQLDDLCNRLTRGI

light scattering = target: the molecule itself; assay: light scattering
[2] = target: T2, ParB (Caulobacter crescentus centromere-binding protein), immobilized for SPR (C. crescentus, UniProt B8GW30 1-304); assay: SPR
T2 sequence (looked up): T1 sequence (looked up)

Measured: binding result

B1: ParA (Caulobacter crescentus ATPase ParA), purified (enzyme, C. crescentus, UniProt B8GW31 1-267, looked up)
chain: MSANPLRVLAIANQKGGVGKTTTAINLGTALAACGERVLLIDADPQGNCSTGLGIGRTQRRTTLYDVLMGEAPVVDAAVKTELPGLDVIPADADLSGVEIELGQTARRSYRLRDALEAIRANGPYTYVLIDCPPSLNVLTVNAMTAADAVFVPLQCEFFALEGLTQLMRTIERVRGSLNPRLEIQGVVLTMYDRRNSLSEQVAKDVRAHFGDKVYDAVIPRNVRVSEAPSFGKPVLLYDLKCAGSQAYLKLAREVISRERDRQAKAA
binds: all assays above
